How the values were obtained:
Assay in all cases: cell-based or functional assay
human Sirt1 (human) = human Sirt1 (human) (UniProt Q96EB6)
human Sirt2 (human) = human Sirt2 (human) (UniProt Q8IXJ6)
human Sirt3 (human) = human Sirt3 (human) (UniProt Q9NTG7)
human Sirt5 (human) = human Sirt5 (human) (UniProt Q9NXA8)
Sequence of human Sirt5 (human) (Q9NXA8 whole entry): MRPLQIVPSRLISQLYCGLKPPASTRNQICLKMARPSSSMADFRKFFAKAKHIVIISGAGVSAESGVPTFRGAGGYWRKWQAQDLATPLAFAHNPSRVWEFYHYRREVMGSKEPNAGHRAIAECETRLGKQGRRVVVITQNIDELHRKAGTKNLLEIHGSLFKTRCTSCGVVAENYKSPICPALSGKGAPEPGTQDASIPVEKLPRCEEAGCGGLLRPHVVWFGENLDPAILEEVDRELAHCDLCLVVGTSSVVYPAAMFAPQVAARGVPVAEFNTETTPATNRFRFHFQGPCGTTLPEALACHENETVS

Sequence of human Sirt2 (human) (Q8IXJ6 whole entry): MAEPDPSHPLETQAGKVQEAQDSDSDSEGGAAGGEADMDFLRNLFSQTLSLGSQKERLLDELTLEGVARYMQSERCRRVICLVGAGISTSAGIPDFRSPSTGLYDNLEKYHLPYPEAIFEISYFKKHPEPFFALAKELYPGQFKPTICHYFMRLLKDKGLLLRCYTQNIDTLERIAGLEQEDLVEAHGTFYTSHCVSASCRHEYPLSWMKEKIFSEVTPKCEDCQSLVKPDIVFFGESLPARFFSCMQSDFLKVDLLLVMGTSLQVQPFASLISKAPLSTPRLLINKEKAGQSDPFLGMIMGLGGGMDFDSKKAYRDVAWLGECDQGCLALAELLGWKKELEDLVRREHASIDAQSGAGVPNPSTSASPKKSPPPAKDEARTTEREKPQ
Sequence of human Sirt1 (human) (Q96EB6 whole entry): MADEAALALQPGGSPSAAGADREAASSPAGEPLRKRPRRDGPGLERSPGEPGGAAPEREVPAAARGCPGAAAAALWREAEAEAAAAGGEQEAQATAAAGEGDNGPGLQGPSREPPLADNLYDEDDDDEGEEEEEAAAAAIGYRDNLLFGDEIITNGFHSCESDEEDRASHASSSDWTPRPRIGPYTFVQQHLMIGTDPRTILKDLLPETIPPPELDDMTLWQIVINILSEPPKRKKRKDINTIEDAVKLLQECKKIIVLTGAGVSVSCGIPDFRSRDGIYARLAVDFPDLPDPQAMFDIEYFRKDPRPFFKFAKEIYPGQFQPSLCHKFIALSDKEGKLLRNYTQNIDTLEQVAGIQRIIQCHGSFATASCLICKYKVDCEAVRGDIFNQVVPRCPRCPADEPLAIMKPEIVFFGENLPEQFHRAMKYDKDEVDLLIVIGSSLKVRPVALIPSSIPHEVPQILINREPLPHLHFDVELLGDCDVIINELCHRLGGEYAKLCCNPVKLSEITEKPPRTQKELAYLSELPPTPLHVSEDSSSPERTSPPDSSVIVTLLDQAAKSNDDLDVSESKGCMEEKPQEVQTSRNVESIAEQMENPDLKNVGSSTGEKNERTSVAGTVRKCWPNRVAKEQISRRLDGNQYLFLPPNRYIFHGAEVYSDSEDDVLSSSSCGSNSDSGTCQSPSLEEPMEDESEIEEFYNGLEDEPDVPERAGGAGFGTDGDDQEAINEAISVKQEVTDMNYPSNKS
Sequence of human Sirt3 (human) (Q9NTG7 102-399 limits assumed): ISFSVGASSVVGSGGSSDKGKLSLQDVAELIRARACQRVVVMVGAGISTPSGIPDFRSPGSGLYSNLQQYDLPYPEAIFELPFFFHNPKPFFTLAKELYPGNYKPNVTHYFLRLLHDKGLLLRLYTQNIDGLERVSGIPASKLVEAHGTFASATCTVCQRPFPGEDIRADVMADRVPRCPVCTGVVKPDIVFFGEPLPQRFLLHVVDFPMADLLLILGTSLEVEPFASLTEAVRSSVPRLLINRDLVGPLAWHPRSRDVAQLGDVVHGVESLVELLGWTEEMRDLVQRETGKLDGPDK

## H3K9 thioacetyl peptide (H3K9 TAc)
Human Sirt1 (human)
  IC50 (µM), inhibition of sirtuin deacylase activity: 1 µM
Human Sirt2 (human)
  IC50 (µM), inhibition of sirtuin deacylase activity: 2 µM
Human Sirt3 (human)
  IC50 (µM), inhibition of sirtuin deacylase activity: 2 µM
Human Sirt5 (human)
  IC50 (µM), inhibition of sirtuin deacylase activity: > 100 µM

From patent US20150057236A1
